Assay results as given in publication PMC4366279 (PLoS ONE, 2015).

B1: T. brucei RNA Editing Ligase 1 (TbREL1), full length wild type [modified: [35S]-methionine labelled; [35S]-methionine labelled] [Trypanosoma brucei] / KREPA2 [modified: [35S]-methionine labelled; [35S]-methionine labelled] [Trypanosoma … (parent complex)
chain 1: YMPLPNDQSDFSPYIEIDLPSESRIQSLHKSGLAAQEWVACEKVHGTNFGIYLINQGDHEVVRFAKRSGIMDPNENFFGYHILIDEFTAQIRILNDLLKQKYGLSRVGRLVLNGELFGAKYKHPLVPKSEKWCTLPNGKKFPIAGVQIQREPFPQYSPELHFFAFDIKYSVSGAEEDFVLLGYDEFVEFSSKVPNLLYARALVRGTLDECLAFDVENFMTPLPALLGLGNYPLEGNLAEGVVIRHVRRGDPAVEKHNVSTIIKLRCSSFMELKHPGKQKELKETFIDTVRSGALRRVRGNVTVISDSMLPQVEAAANDLLLNNVSDGRLSNVLSKIGREPLLSGEVSQVDVVLMLAKDALKDFLKEVDSLVLNTTLAFRKLLITNVYFESKRLVEQKWKELMQEEAAAQSEAIPPLSPAAPTKGE
chain 2: MYRRFFRSAAVKHLGTTSAQCLMRATKYPCGAMCRNASSCHPQTLGYQQRFQSTTDKKFHCSVCKKPFRLEMAAKLHLQQAHGGDGSVEAGPGPGVEASSVNVVSTPVPSPISPVERTFVDEEERRPRRMRPTPKPLHQPDRDIPAAAMEEMLGVWDKIGLNRLEGNFVHSTMVMKVFAAPPDVSEIPLYEHVAPEGENPFDSLDHMTTGTVDATYVGHDAFAEVDLVDPFVAAPDQTLNPFRAGKVRNPFTRISPTQREVVKPLQPPQPKEEPLKAPVTPFGQLPMFGQTREPSASFAAAAVSVQAAANPNEVSSPFAAAVSSSPFVGQVASPFAPAQDVAGSPFEASPCAASSPFVTAGGQETSPFAAPSTPASFGQGSLFPPMGTGAPGFTAITETEQRQQELEHGCPTCGKKFSTFEGAAMHSKSKHGIVLESKKVKDRLNRKGVPDLPAYVPSPVDLSSTSPFGTRSAIGASWAETELIPHAQCVSNITIVGRVLDVSQASENVSHVTVFVEGERSGEEETLTLCCFGEVSQKIRGTLKRNATIFASGTLRLHPVYEASNNKYYVSPVVHVSMPTGTLAVIT

Variants of: B1
Assay: co-precipitation (pull-down) with His-tag isolation beads, [35S]-methionine labeled proteins; parent: 100; read off a plot

Variant	percent of parent
chain 1 YMPLPNDQSDFSPYIEIDLPSESRIQSLHKSGLAAQEWVACEKVHGTNFGIYLINQGDHEVVRFAKRSGIMDPNENFFGYHILIDEFTAQIRILNDLLKQKYGLSRVGRLVLNGELFGAKYAHPLVPKSEKWCTLPNGKKFPIAGVQIQREPFPQYSPELHFFAFDIKYSVSGAEEDFVLLGYDEFVEFSSKVPNLLYARALVRGTLDECLAFDVENFMTPLPALLGLGNYPLEGNLAEGVVIRHVRRGDPAVEKHNVSTIIKLRCSSFMELKHPGKQKELKETFIDTVRSGALRRVRGNVTVISDSMLPQVEAAANDLLLNNVSDGRLSNVLSKIGREPLLSGEVSQVDVVLMLAKDALKDFLKEVDSLVLNTTLAFRKLLITNVYFESKRLVEQKWKELMQEEAAAQSEAIPPLSPAAPTKGE [chain 1 K122A]	~100 % of WT
chain 1 YMPLPNDQSDFSPYIEIDLPSESRIQSLHKSGLAAQEWVACEKVHGTNFGIYLINAGDHEVVRFAKRSGIMDPNENFFGYHILIDEFTAQIRILNDLLKQKYGLSRVGRLVLNGELFGAKYKHPLVPKSEKWCTLPNGKKFPIAGVQIQREPFPQYSPELHFFAFDIKYSVSGAEEDFVLLGYDEFVEFSSKVPNLLYARALVRGTLDECLAFDVENFMTPLPALLGLGNYPLEGNLAEGVVIRHVRRGDPAVEKHNVSTIIKLRCSSFMELKHPGKQKELKETFIDTVRSGALRRVRGNVTVISDSMLPQVEAAANDLLLNNVSDGRLSNVLSKIGREPLLSGEVSQVDVVLMLAKDALKDFLKEVDSLVLNTTLAFRKLLITNVYFESKRLVEQKWKELMQEEAAAQSEAIPPLSPAAPTKGE [chain 1 Q56A]	~110 % of WT
chain 1 YMPLPNDQSDFSPYIEIDLPSESRIQSLHKSGLAAQAWVACEKVHGTNFGIYLINQGDHEVVRFAKRSGIMDPNENFFGYHILIDEFTAQIRILNDLLKQKYGLSRVGRLVLNGELFGAKYKHPLVPKSEKWCTLPNGKKFPIAGVQIQREPFPQYSPELHFFAFDIKYSVSGAEEDFVLLGYDEFVEFSSKVPNLLYARALVRGTLDECLAFDVENFMTPLPALLGLGNYPLEGNLAEGVVIRHVRRGDPAVEKHNVSTIIKLRCSSFMELKHPGKQKELKETFIDTVRSGALRRVRGNVTVISDSMLPQVEAAANDLLLNNVSDGRLSNVLSKIGREPLLSGEVSQVDVVLMLAKDALKDFLKEVDSLVLNTTLAFRKLLITNVYFESKRLVEQKWKELMQEEAAAQSEAIPPLSPAAPTKGE [chain 1 E37A]	~67 % of WT
chain 1 YMPLPNDQSDFSPYIEIDLPSESRIQSLHKSGLAAQEWVACEKVHGTNFGIYLINQGDHEVVRFAKRSGIMDPNENFFGYHILIDEFTAQIRILNDLLKQKYGLSRVGRLVLNGELFGAKYKHPLVPKSEKWCTLPNGKKFPIAGVQIQREPFPQYSPELHFFAFDIKYSVSGAEEDFVLLGYDEFVEFSSKVPNLLYARALVRGTLDECLAFDVENFMTPLPALLGLGNYPLEGNLAEGVVIRHVRRGDPAVEKHNVSTIIKLRCSSFMELKHPGKQKELKETFIDTVRSGALRRVRGNVTVISDSMLPQVEAAANDLLLNNVSDGRLSNVLSKIGREPLLSGEVSQVDVVLMLAKDALKDFLKEVDSLVLNTTLAFRKLLITNVYFESKRLVEQKWAELMQEEAAAQSEAIPPLSPAAPTKGE [chain 1 K399A]	~60 % of WT
chain 1 YMPLPNDQSDFSPYIEIDLPSESRIQSLHKSGLAAQEWVACEKVHGTNFGIYLINQGDHEVVRFAKRSGIMDPNANFFGYHILIDEFTAQIRILNDLLKQKYGLSRVGRLVLNGELFGAKYKHPLVPKSEKWCTLPNGKKFPIAGVQIQREPFPQYSPELHFFAFDIKYSVSGAEEDFVLLGYDEFVEFSSKVPNLLYARALVRGTLDECLAFDVENFMTPLPALLGLGNYPLEGNLAEGVVIRHVRRGDPAVEKHNVSTIIKLRCSSFMELKHPGKQKELKETFIDTVRSGALRRVRGNVTVISDSMLPQVEAAANDLLLNNVSDGRLSNVLSKIGREPLLSGEVSQVDVVLMLAKDALKDFLKEVDSLVLNTTLAFRKLLITNVYFESKRLVEQKWKELMQEEAAAQSEAIPPLSPAAPTKGE [chain 1 E75A]	~74 % of WT
chain 1 YMPLPNDQSDFSPYIEIDLPSESRIQSLHKSGLAAQEWVACEKVHGTNFGIYLINQGDHEVVRFAKRSGIMDPNENFFGYHILIDEFTAQIRILNDLLKQKYGLSRVGRLVLNGELFGAKYKHPLVPKSEKWCTLPNGKKFPIAGVQIQREPFPQYSPELHFFAFDIKYSVSGAEEDFVLLGYDEFVEFSSKVPNLLYARALVRGTLDECLAFDVENFMTPLPALLGLGNAPLEGNLAEGVVIRHVRRGDPAVEKHNVSTIIKLRCSSFMELKHPGKQKELKETFIDTVRSGALRRVRGNVTVISDSMLPQVEAAANDLLLNNVSDGRLSNVLSKIGREPLLSGEVSQVDVVLMLAKDALKDFLKEVDSLVLNTTLAFRKLLITNVYFESKRLVEQKWKELMQEEAAAQSEAIPPLSPAAPTKGE [chain 1 Y231A]	~75 % of WT
chain 1 YMPLPNDQSDFSPYIEIDLPSESRIQSLHKSGLAAQEWVACEKVHGTNFGIYLINQGDHEVVRFAKRSGIMDPNENFFGYHILIDEFTAQIRILNDLLKQKYGLSRVGRLVLNGELFGAKYKHPLVPKSEKWCTLPNGKKFPIAGVQIQREPFPQYSPELHFFAFDIKYSVSGAEEDFVLLGYDEFVEFSSKVPNLLYARALVRGTLDECLAFDVENFMTPLPALLGLGNYPLEGNLAEGVVIRHVRRGDPAVEKHNVSTIIKLRCSSFMELKHPGKQKELKETFIDTVRSGALRRVRGNVTVISDSMLPQVEAAANDLLLNNVSDGRLSNVLSKIGREPLLSGEVSQVDVVLMLAKDALKDFLKEVDSLVLNTTLAFRKLLITNVYFESKRLVEQKAKELMQEEAAAQSEAIPPLSPAAPTKGE [chain 1 W398A]	~66 % of WT
chain 1 YMPLPNDQSDFSPYIEIDLPSESRIQSLHKSGLAAQEWVACEKVHGTNFGIYLINQGDHEVVRFAKRSGIMDPNENFFGYHILIDEFTAQIRILNDLLKQKYGLSRVGRLVLNGELFGAKYKHPLVPKSEKWCTLPNGKKFPIAGVQIQREPFPQYSPELHFFAFDIKYSVSGAEEDFVLLGYDEFVEFSSKVPNLLYARALVRGTLDECLAFDVENFMTPLPALLGLGNYPLEGNLAEGVVIRHVRRGDPAVEKHNVSTIIKLRCSSFMELKHPGKQKELKETFIDTVRSGALRRVRGNVTVISDSMLPQVEAAANDLLLNNVSDGRLSNVLSKIGREPLLSGEVSQVDVVLMLAKDALKDFLKAVDSLVLNTTLAFRKLLITNVYFESKRLVEQKWKELMQEEAAAQSEAIPPLSPAAPTKGE [chain 1 E366A]	~72 % of WT
chain 1 YMPLPNDQSDFSPYIEIDLPSESRIQSLHKSGLAAQEWVACEKVHGTNFGIYLINQGDHEVVRFAKRSGIMDPNENFFGYHILIDEFTAQIRILNDLLKQKYGLSRVGRLVLNGELFGAKYKHPLVPKSEKWCTLPNGKKFPIAGVQIQREPFPQYSPELHFFAFDIKYSVSGAEEDFVLLGYDEFVEFSSKVPNLLYARALVRGTLDECLAFDVENFMAPLPALLGLGNYPLEGNLAEGVVIRHVRRGDPAVEKHNVSTIIKLRCSSFMELKHPGKQKELKETFIDTVRSGALRRVRGNVTVISDSMLPQVEAAANDLLLNNVSDGRLSNVLSKIGREPLLSGEVSQVDVVLMLAKDALKDFLKEVDSLVLNTTLAFRKLLITNVYFESKRLVEQKWKELMQEEAAAQSEAIPPLSPAAPTKGE [chain 1 T220A]	~84 % of WT
chain 1 YMPLPNDQSDFSPYIEIDLPSESRIQSLHKSGLAAQEWVACEKVHGTNFGIYLINQGDHEVVRFAKRSGIMDPNENFFGYHILIDEFTAQIRILNDLLKQKYGLSRVGRLVLNGELFGAKYKHPLVPKSEKWCTLPNGKKFPIAGVQIQREPFPQYSPELHFFAFDIKYSVSGAEEDFVLLGYDEFVEFSSKVPNLLYARALVRGTLDECLAFDVENFMTPLPALLGLGNYPLEGNLAEGVVIRHVRRGDPAVEKHNVSTIIKLRCSSFMELKHPGKQKELKETFIDTVRSGALRRVRGNVTVISDSMLPQVEAAANDLLLNNVSDGRLSNVLSKIGREPLLSGEVSQVDVVLMLAKDALKDFLKEVDSLVLNTTLAFRALLITNVYFESKRLVEQKWKELMQEEAAAQSEAIPPLSPAAPTKGE [chain 1 K380A]	~84 % of WT
chain 1 YMPLPNDQSDFSPYIEIDLPSESRIQSLHKSGLAAQEWVACEKVHGTNFGIYLINQGDHEVVRFAKRSGIMDPNENFFGYHILIDEFTAQIRILNDLLKQKYGLSRVGRLVLNGELFGAKYKHPLVPKSEKWCTLPNGKKFPIAGVQIQREPFPQYSPELHFFAFDIKYSVSGAEEDFVLLGYDEFVEFSSKVPNLLYARALVRGTLDECLAFDVENFMTPLPALLGLGNYPLEGNLAEGVVIRHVRRGDPAVEKHNVATIIKLRCSSFMELKHPGKQKELKETFIDTVRSGALRRVRGNVTVISDSMLPQVEAAANDLLLNNVSDGRLSNVLSKIGREPLLSGEVSQVDVVLMLAKDALKDFLKEVDSLVLNTTLAFRKLLITNVYFESKRLVEQKWKELMQEEAAAQSEAIPPLSPAAPTKGE [chain 1 S259A]	~100 % of WT
chain 1 YMPLPNDQSDFSPYIEIDLPSESRIQSLHKSGLAAQEWVACEKVHGTNFGIYLINQGDHEVVRFAKRSGIMDPNENFFGYHILIDEFTAQIRILNDLLKQKYGLSRVGRLVLNGELFGAKYKHPLVPKSEKWCTLPNGKKFPIAGVQIQREPFPQYSPELHFFAFDIKYSVSGAEEDFVLLGYDEFVEFSSKVPNLLYARALVRGTLDECLAFDVENFMTPLPALLGLGNYPLEGNLAEGVVIRHVRRGDPAVEKHNVSTIIKLRCSSFMELKHPGKQKELKETFIDTVRSGALRRVRGNVTVISDSMLPQVEAAANDLLLNNVSDGRLSNVLSKIGREPLLSGEVSQVDVVLMLAKDALKDFLKEVDSLVLNTTLAFRKLLITNVYFESARLVEQKWKELMQEEAAAQSEAIPPLSPAAPTKGE [chain 1 K391A]	~88 % of WT
chain 1 YMPLPNDQSDFSPYIEIDLPSESRIQSLHKSGLAAQEWVACEKVHGTNFGIYLINQGDHEVVRFAKRSGIMDPNENFFGYHILIDEFTAQIRILNDLLKQKYGLSRVGRLVLNGELFGAKYKHPLVPKSEKWCTLPNGKKFPIAGVQIQREPFPQYSPELHFFAFDIKYSVSGAEEDFVLLGYDEFVEFSSKVPNLLYARALVRGTLDECLAFDVENFMTPLPALLGLGNYPLEGNLAEGVVIRHVRRGDPAVEKHNVSTIIKLRCSSFMELKHPGKQKELKETFIDTVRSGALRRVRGNVTVISDSMLPQVEAAANDLLLNNVSDGRLSNVLSAIGREPLLSGEVSQVDVVLMLAKDALKDFLKEVDSLVLNTTLAFRKLLITNVYFESKRLVEQKWKELMQEEAAAQSEAIPPLSPAAPTKGE [chain 1 K335A]	~57 % of WT
